In this assay the target is asymmetric nucleosome with H2B-Ser6 tri-ADP-ribose on one side only (Nuc-H2B-ADPr3) (Xenopus laevis | not stated) (UniProt P02281). Put plainly: cryo-EM structure; modified nucleosomes at 1 µM, ALC1 at 6 µM, ADP-BeF3 at 1 mM, incubated 60 minutes on ice before vitrification.

Sequence of ALC1 (Amplified in Liver Cancer 1), wild-type construct (16-879) (Q86WJ1 16-879): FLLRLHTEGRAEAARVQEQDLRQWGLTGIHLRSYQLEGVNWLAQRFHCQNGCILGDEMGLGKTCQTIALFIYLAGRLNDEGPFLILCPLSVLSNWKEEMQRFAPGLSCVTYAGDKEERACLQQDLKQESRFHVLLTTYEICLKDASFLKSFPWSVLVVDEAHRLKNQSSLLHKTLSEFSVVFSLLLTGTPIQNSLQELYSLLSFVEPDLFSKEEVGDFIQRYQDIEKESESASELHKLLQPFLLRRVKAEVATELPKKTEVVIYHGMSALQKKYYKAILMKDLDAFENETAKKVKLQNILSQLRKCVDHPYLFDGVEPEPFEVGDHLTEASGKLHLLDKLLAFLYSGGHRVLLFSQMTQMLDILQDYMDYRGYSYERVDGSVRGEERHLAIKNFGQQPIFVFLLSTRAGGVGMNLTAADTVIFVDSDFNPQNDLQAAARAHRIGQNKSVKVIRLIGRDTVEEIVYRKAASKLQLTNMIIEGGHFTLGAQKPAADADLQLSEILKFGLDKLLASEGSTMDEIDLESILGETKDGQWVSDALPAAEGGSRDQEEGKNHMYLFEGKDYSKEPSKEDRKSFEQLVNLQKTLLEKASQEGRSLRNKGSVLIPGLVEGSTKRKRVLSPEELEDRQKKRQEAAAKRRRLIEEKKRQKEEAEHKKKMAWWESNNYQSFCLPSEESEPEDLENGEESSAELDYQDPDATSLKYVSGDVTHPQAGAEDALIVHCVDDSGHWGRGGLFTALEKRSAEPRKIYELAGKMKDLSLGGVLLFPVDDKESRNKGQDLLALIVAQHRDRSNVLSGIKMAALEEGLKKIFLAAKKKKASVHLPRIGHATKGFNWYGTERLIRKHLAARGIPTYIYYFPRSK

“ALC1 (Amplified in Liver Cancer 1), wild-type construct (16-879) (from UniProt Q86WJ1 16-879) (enzyme)” registered a stoichiometry N of 1.

The values above are taken from publication PMC10837151.
